Biological target: His6-Munc18a (rat, UniProt P61765 1-594)
Assay: pull-down

Chain of His6-Munc18a (P61765 whole entry): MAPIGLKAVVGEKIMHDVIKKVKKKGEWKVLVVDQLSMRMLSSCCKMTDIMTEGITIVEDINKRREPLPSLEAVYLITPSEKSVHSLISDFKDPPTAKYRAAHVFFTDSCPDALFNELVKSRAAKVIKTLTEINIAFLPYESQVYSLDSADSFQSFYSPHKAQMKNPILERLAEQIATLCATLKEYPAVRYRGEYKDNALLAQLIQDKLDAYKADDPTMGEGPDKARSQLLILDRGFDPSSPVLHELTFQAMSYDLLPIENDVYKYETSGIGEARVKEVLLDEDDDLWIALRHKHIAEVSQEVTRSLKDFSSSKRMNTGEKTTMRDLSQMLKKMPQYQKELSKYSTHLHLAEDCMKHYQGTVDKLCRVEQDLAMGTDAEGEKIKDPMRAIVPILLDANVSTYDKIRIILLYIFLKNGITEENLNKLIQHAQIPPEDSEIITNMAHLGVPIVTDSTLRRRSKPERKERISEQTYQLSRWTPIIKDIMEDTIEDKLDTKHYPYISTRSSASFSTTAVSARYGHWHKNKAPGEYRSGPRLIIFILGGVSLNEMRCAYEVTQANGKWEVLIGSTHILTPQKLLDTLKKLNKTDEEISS

binding result: binds
B1: syntaxin3, full-length, liposome-anchored (natural protein, rat, UniProt Q08849 1-289, looked up)
chain: MKDRLEQLKAKQLTQDDDTDEVEIAIDNTAFMDEFFSEIEETRLNIDKISEHVEEAKKLYSIILSAPIPEPKTKDDLEQLTTEIKKRANNVRNKLKSMEKHIEEDEVRSSADLRIRKSQHSVLSRKFVEVMTKYNEAQVDFRERSKGRIQRQLEITGKKTTDEELEEMLESGNPAIFTSGIIDSQISKQALSEIEGRHKDIVRLESSIKELHDMFMDIAMLVENQGEMLDNIELNVMHTVDHVEKARDETKRAMKYQGQARKKLIIIIVIVVVLLGILALIIGLSVGLK

From paper PMC5651683 (The Biochemical journal, 2017)
